Columns and labels:
BxPC-3 = assay: MTT Cell Proliferation Assay, BxPC-3; assay type: cell-based, human; conditions: 120 hours of exposure
Source text: (§1) This Example describes characterization of the cytotoxic activity of herein described anti-BKB2R monoclonal antibodies against a panel of cancer cell lines. BxPC-3 is a human adenocarcinoma cell line originally isolated from the pancreas (pancreatic cancer) (ATCC # CRL-1687; Tan et al., Cancer Invest. 4: 15-23, 1986. PubMed: 3754176). MV-4-11 is a human biphenotypic B myelomonocytic leukemia (mixed-lineage leukemia, MLL-AF4) cell line originally isolated from the peripheral blood (ATCC # CRL-959; Lange et al., Blood 70: 192-199, 1987. PubMed: 3496132). Hep G2 is a human hepatocellular carcinoma cell line isolated from the liver (liver cancer) (ATCC # HB-8065; Aden et al., Nature 282: 615-616, 1979. PubMed: 233137). RS4;11 is a human acute lymphoblastic leukemia (mixed-lineage leukemia, MLL-AF4) cell line isolated from the bone marrow (ATTC # CRL-1873) Stong et al., Blood 65: 21-31, 1985. PubMed: 3917311). HT-29 is a human colorectal adenocarcinoma (ATTC # HTB-38) cell line isolated from the colon (colon cancer). Fogh et al., J. Natl. Cancer Inst. 58: 209-214, 1977. PubMed: 833871). NUGC-4 is a human stomach carcinoma isolated from the stomach paragastiric lymph node (JCRB # JCRB0834; Akiyama et al., Jpn. J. Surg., 18: 438-446, 1988). […]
(§2) The anti-proliferative activity of test compounds against the indicated cell lines was evaluated in vitro using the ATCC's MTT Cell Proliferation Assay (Catalog No. 30-1010K). After the 120 hour incubation with drug (e.g., anti-BKB2R mAb or cisplatin), cell proliferation was measured by addition of MTT reagent to each well and incubation for an additional 4 hrs. […] Optical absorbance (570 nm) of the test wells was measured and then quantitated relative to control wells that received no drug. Results were expressed as percent inhibition versus compound concentration and graphed, as shown in FIGS. 19-25, for cell lines BxPC-3, MV-4;11, HepG2, RS-4;11, HT-29, NUGC-4, and PC-3, respectively.

Hep G2 = assay: MTT Cell Proliferation Assay, Hep G2; assay type: cell-based, human; conditions: 120 hours of exposure
Source text: as §1, §2

[1] = system: diet induced obese (DIO) mice; assay: Oral glucose tolerance test in DIO mice, single dose of 5F12G1; assay type: in vivo, mouse; conditions: single s.c. administration 1.0, 0.2 and 0.04 mg/kg
Procedure: This Example describes evaluation of oral glucose tolerance in diet induced obese (DIO) mice treated with the anti-BKB2R monoclonal antibody 5F12G1 (VH comprising SEQ ID NO:1, VL comprising SEQ ID NO:2). Male C57BL/6J mice (Jackson Laboratory, Bar Harbor, Me.) were maintained on a 60 kcal % fat diet with Research Diet and Arrowhead drinking water ad libitum and permitted to acclimatize for a period of eight weeks. Ten animals per group were treated according to the following treatment groups: 1, sterile PBS (vehicle control); 2, 1.0 mg/kg murine monoclonal antibody (mAb) 5F12G1; 3, 0.2 mg/kg mAb 5F12G1; 4, 0.04 mg/kg mAb 5F12G1.
Oral Glucose Tolerance Test. The Oral Glucose Tolerance Test (OGTT) was performed on overnight fasted (16 hours) mice. […] Blood glucose levels were measured before administration of vehicle or 5F12G1 (−30 minutes) and just before glucose loading (0 minute) and at ensuing timepoints of 15, 30, 60 90 and 120 minutes using an Accu-Chek™ glucose meter (Roche Diagnostics, Indianapolis, Ind.) according to the manufacturer's instructions.
At multiple time points (0, 15, 30, 60, 90 and 120 minutes) blood samples of approximately 50 μl each were collected and processed to isolate the plasma. The plasma samples were analyzed for insulin by an ELISA method using an ultra sensitive mouse insulin ELISA kit (Crystal Chem, Inc., Downers Grove, Ill.). […]

ZDF fa/fa rats = assay: 21-day ZDF fa/fa study: urinary glucose (glycosuria); assay type: in vivo, rat; conditions: day 14

B1: 5F12G1: murine monoclonal anti-BKB2R antibody (IgG2b,κ), VH comprising SEQ ID NO:1, VL comprising SEQ ID NO:2 (antibody, listed as Mus musculus, V domains shown)
VH: EVKLEESGGGLVQPGGSMKLSCVVSGFTFSDYWMSWVRHSPEMGLEWVAEIRLKSDNYATHYAESVKGRFTISRDDSKSRLYLQINSLRGEDTGIYYCTRDYYAMEYWGQGTSVTVSS
VL: DVVMTQTPLSLPVSLGDQASISCRSSQTIVHSNGKTYLEWYLQKPGQSPKLLIYKVSNRFSGVPDRFSGSGSGTEFTLKISRVETEDLGVYYCFQASHVPYTFGGGTKLEIK
BxPC-3
  EC 50 Values (ng/ml) BxPC-3: 23000 ng/mL
Hep G2
  EC 50 Values (ng/ml) Hep G2: 21000 ng/mL
[1]
  insulin activity in OGTT: dose dependently increased insulin activity
[1]; 30 min before glucose 2 g/kg
  area under curve (AUC) of blood glucose concentration after oral loading of glucose, compared to vehicle control: decreased
ZDF fa/fa rats; 0.008 mg/kg s.c. every 3 days
  urine glucose level: 54 ± 11 mg/dL
ZDF fa/fa rats; 0.04 mg/kg s.c. every 3 days
  urine glucose level: 49 ± 6 mg/dL
ZDF fa/fa rats; 0.2 mg/kg s.c. every 3 days
  urine glucose level: 31 ± 2 mg/dL
